Reference: the nanobody polyreactivity screen of Harvey et al. (2022)

Assay: yeast display, Sf9 membrane polyspecificity reagent, FACS + sequencing; frameworks hold sequencing errors
Summary of the method: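 Galactose-induced (36–48 hours) yeast carrying a synthetic nanobody display library were exposed to 10% biotinylated, detergent-solubilized Sf9 membrane reagent at 4 °C for 1 hour. FACS followed streptavidin microbead enrichment, using low and high (top ~1%) gates for expression (anti-HA) and reagent binding (streptavidin). Colony PCR, MiSeq 2 × 250 sequencing and CDR-length filtering followed. Labels for polyreactivity reflect the gate of origin.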

Sequence	polyreactivity (PSR sort gate)
QVQLVESGGGLVQAGGSLRLSCAASGRTFKTYAMGWYRQAPGKERELVAAISRDGRTYYADSVKGRFTISRDNAKNTVYLQMNSLKPEDTAVYYCNKRSYRKGDYWGQGTQVTVSS	low polyreactivity
QVQLVESGGGLVQAGGSLRLSCAASGSIFDPNAMGWYRQAPGKERELLADIDSSDGSTYYADSVKGRFTISRDNAKNTVYLQMNSLKPEDTAVYYCNARYGGWVWSTYDHWGQGTQVTVSS	low polyreactivity
QVQLGDSGGGLLQAGGSLRLSCAASGRTFYYNALGWYRQAPGKERELVARIRSGGSTNYADSVKGRFTISRDNAKNTVYFQMNSRKPEDTAVYYCNALGAKGYVKGFDYWGLGTQVTVSS	low polyreactivity
QVQLVESGGGLVQAGGSLRLSCAASGSIFSSYAMGWYRPAPWKESELVAAITYNGGSTFYADSVKGRFTISRDNAKNTVYLPMYCLKPVDTAVYYCAAEYVGYYVYTWLYDYWGQGTQVTVSS	high polyreactivity
QVQLVESGGGLFQAGGSLRLSCAATGRIFYSNAMGWYRQAPGKERELVAAINSRGGRTYYADSLKGRFTISRDNAKNTVYLQMNSLKPEDTAVYYCAAPTGPKGYYSDRGDSWGQGTQVTVSS	high polyreactivity
QVQLQESGGGLVQAGGSLLSCAASGTISYYREMGWYRQAPGKERELDAGIGVGTITSYADSVKGRFTISRDNAKNTVYLQMNSLKPEDTAVYYCAAHIDGNDSHAYWGQGTQVTVSC	low polyreactivity
QVLLVESGGGLVQAGGSLRLSCAASGFIFFKYAMGWYRQAPGKEREFVAAISKSGTSTYYADSVKGRFTISRDNAKNTVYLQLNILKPEDTAVYDCAARYGRGSAYPEYDYWGQGTQVTVSS	high polyreactivity
QVQLVESGGGVVQAGGSLRLSCAASGITFSRYAMGWYRQAPGKERELVAAISGSGGRTYYADSVKGRFTISRDNAKNTVYLQMNSLKPEDTAVYYCARESSYYKYYYWGQGTQVTVSS	high polyreactivity
QVQLVESGGGLVQAGGSLRLSCAASGNIFFSNAMGWYRQAPGKERELVASISQSGGSTYYADSVKGRFTISRDNAKNTVYLQMNSLKPEDTAVYYCAATQVRRGPAWGRDYWGQGTQVTVSS	low polyreactivity
QVQLVESGGGLVQAGGSLRLSCAASGSIFVAYDMGWYRQAPGKERELVAAINFDGTSTYYADSVKGRFTISRDNAKNTVYLQMNSLKPEETAVYYCNNRVSPTYKGQYEYWGQGTQVTVSS	low polyreactivity
QVQLVESGGGLVQAGGSLRLSCAASGITFRTNTMGWYRQAPGKERELVAAITRSGVTTYYADSVKGRFTISRDNAKNTVYLQMNSLKPEDTAVYYCAARSTKYLYGYWGQGTQVTVSS	high polyreactivity
QVQLVESGGGLVQAGGSLRLSCAASGITFRRYAMGWYRQAPGPEREFVATISGIGGNTYYADSVKGRFTISRANAKNPVYLQMNSLKPEDPAVYYCAADLWAGTYGEYDYWGQGPQVTVSS	high polyreactivity
QVQLVESGGGLVQAGGSLRISCAASGSTFWYYAMGRYREAPGKERELVAAIRRGGSTYYADSVKGRFTISRDNAKNTVYLQLNSLKPDDTAGYYCAAERPYKTFGYGDWGQGTQVTVSS	high polyreactivity
QVQLVESGGGLVQAGGSLRLSCAASGIIFYYNAMGWYRQAPGKEREYVASISSRGGSTYYADSVKGRFTISRDNAKNTVYLQMKSLKPEDPAVYYCAAAFDWRRQRYNYWGHGTQVTVSS	high polyreactivity
QVQLVESGGGLVQARGSLRLSCAASGRIFLINGMGWYRQAPGKERELVAVITQSGGTYYADSVKGRFTISRDNAKNTVYLQMNSLKPEDTAVYYFAASSYGASRGYWGQGTQVTVSS	high polyreactivity
QVQLVESGGGLVQAGGSLRLSCAASGRTSDGYAMGWYRPAPGKERELVAGITEGGGDTYYADSVKGRFTISRDNAKNTVYLQMNSLKPEDTAVYYCNAVEGSRLPYDYWGQGTQVTVSS	low polyreactivity
QVQLVESGGGLVQAGGSLRLSCAASGYILRSNAMGWYRQAPGKEREFVAAITYSGGSTYYADSVKGRFTISRDNAKNTVYFQRNSLKPEATAVYSCSKTTRYRRGYGYWGQGTEVTVSS	low polyreactivity
QVQLVESGGGLVQAGGSLRLSCAASGRIFAYNTMGWYRQAPGKERELVAGITSGGSTNYADSVKGRFTISRDNAKNTVYLQMNSLQPEDTAVYYCAAVGRWGVTGSHHDAYDYWGQGTQVTVSS	high polyreactivity
QVQLVESGGGLVQAGGSLRLSCAASGRIFYANAMGWYRQAPGKERELVAAISQSGGSTFYADSVKGRFTISRDNAKNTVYLQMNSLKPEDTAVYYCATEYYGPVYDLDYDYWGQGTQVTVSS	low polyreactivity
QVQLVESGGGLDQAGGSLRLSCAASGSTSPYYTMGWYRQAPGKERELVASINESGGSTYYADSVKGRFTISRDNAKNTVYLLMNSLKPEDTAVYYCNAEYTTPSYPVYRIDYYWFDYWGQGTQVTVSS	low polyreactivity
QVQIVESGGGVVQAGGSLRLSCAASGLIFPAYTMGWYRQAPGKERELVAAISRSGGSTYYADSVKGRFTISRDNAKNTVSLQMNSLNPEDTAVYYCAAQGYFVDRAGRYYRGDYWGQGTQVTVSS	high polyreactivity
QVQLVESGGGLVQAGGSLRLSCAASGSTFVPYAIGWYRQAPGKERELVASITYSGGSTSYADSVKGRFTISRDNAKNTVYLQMNSLKPEDTAVYYCAAVPWVVYSGYDYWGQGTQVTVSS	low polyreactivity

Sequence	polyreactivity (PSR sort gate)
QVQLVESGGGLVQAGGSLRLSCAASGSTFRQYAMGWYRQAPGKERELVAAISTNGVSTRYADSVKGRFTISRDNAKNTVYLQMNSLKPEDTAVYSCAAGYRKSYTYYRYDYWGQGTQVTVSS	high polyreactivity
QVQLVESAGGLVQAGRSLRLSCAASGRNFLGNDMGWYRQAPGKERELVAAISYGDGSTYYADSVKGRFTISRDNAKNTVYLQMNSLKPEDTAVYYCAAERYTIPPIYDYWGQGTQVTVSS	low polyreactivity
QVQLVESGVALVQAAGSLRLSCAASGSTFGYYTMGWYRQAPGKERELVAAISWSGGSTYYADSVKGRFTISRDHAKTTVYLQMNSLKPEDTAVYFCAAKTNRGSYSYEYWGQGTQVTVSS	high polyreactivity
QVQLVESGGGIVQAGGSLRLSCAASGRTFYANAMGWYRQAPGKERELVAAISTVGDGTYYADSVKGRFTISRDNAKYTVYLQMNSLKPEDTAVYYCAVRHRASGILYDYWRQGTQVTVSS	low polyreactivity
QVQLVESGAGLVQAGGSLRLSCAASGLIFSVYGLGWYRQEPGKERELVAAISSRGGSTYYADSVKGRFTISRVNANYTVYLQMNSLKPEDTAFYYCARRAYREHHRCQYYYWGQGTQLTVSS	high polyreactivity
QVQLVESGGGLVQAGGSLRLSCAASGRTIWVYTMGWYRQAPGKERELVATINYRGGSTYYADSVKGRFTISRDNAKNTVYLQMNSLKPEDTAVYYCAADYSPPYPRYPYDYWGQGTQVTVSS	high polyreactivity
QVQLVESGGGLVQAGGSLRLSCAASGIIFTGNAMGWYRQAPGKERELVAGITGSGGNTYYADSVKGRFTISRDNAKNTVYLQMNSLKPEDTAVYYCAARRHIFLLIIWSGRVDYWGQGTQVTVSS	low polyreactivity
QVQLVESGGGLVQAGGSLRLSCAASGSIFSVNDMGWYRQAPGKERELVAAISSGGSTNYADSVKGRFTISRDNAKNTVSLQMNSLKPEDTAVYYCNTVVRGWSSSAYDYWGQGTQVTVSS	low polyreactivity
QVQLVESGGVLVQAGGSLRLSCAASGSIFGTYAMGWYRRAPGKERELVAAITSDGVDTYYADSVKGRFTISRDNAKITVYLQMNSLKPEDTAVYYGAAEYEGLYGYGYWGQGTQVTVSS	high polyreactivity
QVQLVESGGGLVQAGGSLRLSCAASGRTIWYYAMGWYRQAPGKERELVASITRSGGSTYADSVKGRFTISRDNAKNTVDLQMNSLKPEDTAVYYCAATRPRIPVYQNNYGYWGQGSQVTVSS	high polyreactivity
QVQLVESGGGLVQAGGSLRLSCAASVRIFQYYVMGWYIQAPGKERELVAAITSGGGTKYADSVKGRFTISRDNAKNTVYLQMNSLIPEDTAVYFCAAAWFDQYSRYDYWGQGTQVTVSS	low polyreactivity
QVQLVESGGGLVQAGCSLRLSCAASGRTFNYYAMGWYRQAPGKERELVAAISVSGVRTYYADSVKGRFTISRDNAKNSVYLQMNSLKPEDTAVYYCAGLYQSVRGYVYWGQGTQVTVSS	high polyreactivity
QVQLVESGGGLVQAGGSLRLSCAASGSTIRYYAMGWYRQAPGKERELLAAITKSGGSTYYADSVKGRFTISRDNAKNTVYLQMNSLKPEDTAVYFCAAVRRWYYPALSEHDYCGQGTQVTVSS	low polyreactivity
QVQLVESGGGLVQAGGSLRLSCAASGSIFNTYAMGWYRQAPGKERELVAAISRSGDSTYYADSVKGRFTISRDNAKNTVYVQMNSLKPEDSAVYYCATGRTDHGYYYWGQGTQVTVSS	high polyreactivity
QVQLVESGGGLVQAGGSLRLSCAASGSTFSGYAMGWYRLAPGKERELVASISSGGRTTYADSVKGRFTISRDNAKYTVYLQMNSLKPEDTAVSYCANRIRPGYARLYSWGQGTQVTVSS	high polyreactivity
QVQLVESGGGLVQAGGSLRLSCAASGSTFHLYAMGWYRKAPGKEREFVAAIRGRGGNTYADSVKGRFTISRDNAKNTVYLQMNSLKPEDTAVYYCAAPLLRDLRSPYSYNYWGQGTQVTVSS	low polyreactivity
QVQLVESGGGLVQAGGSLRLSCAASGRTLTQYAMGWYRQAPGTERELVAAINTSGDSTYYADSVKGRFTISRDNAKNTVYLQMNSLKPEDTAVYYCAADGFWSQLYHLYNGYDYWGQGTQVTVSS	low polyreactivity
QVRLVESGGGLVQAGGSLRLSCAASGFIFRNNAMGWYRQAPGKERELVAVISFSGGSTYYADSVKGRFTISRDNAKNTVSLQMNSLKPEDTAVYYCTAKGWYYTRRSDYWGQGTQVTVSS	low polyreactivity
QVQLVESGGGLVQAGGSLRLSCAASGSILKYYAMGWYRQAPGKERELVAAISRSGGSTYYADSVKGRFTISRDNAKITVYLQMTSLKPEDTAVYYCAAYYNLPYHGSDYWGQGTQVTVSS	high polyreactivity
QEQLVESGGGLVQAGGSLRLSCAASGNTFSYNAMGWYRQAPGKEREVVAAISSRGVRTYYADSVKGRFTISRDNAKNTVYLQMNSLKPEDTAVYYCAADLWDWAYDYWGQGTQVTVSS	high polyreactivity
QVQLVESGGGLDQAGGSLRLSCAASGSILPYYAMGWYRQAPGKERELVATITDGTDTYYADSVKGRFTFSRDNAKNTVYLQMNSLKQEDTAVYYCDRKQYWGYDYWGQGTQVTVSS	low polyreactivity
